One series concerns the target Cas2/3 (P. aeruginosa) (UniProt Q02ML8). As to the kind of experiment: SPR.
For series [1], the target named is Csy complex (P. aeruginosa) (UniProt Q02ML9). The series is described as follows: MST.
Another series concerns the target AcrIF23 (P. aeruginosa). The series is described as follows: MST.
For the next series, the target named is AcrIF3 (P. aeruginosa). As to the kind of experiment: MST.
For series [2], the target named is T1, Csy complex (Cas8f, Cas5f, Cas7f, Cas6f, crRNA) (Pseudomonas aeruginosa, UniProt Q02ML9;Q02MM0;Q02MM1;Q02MM2 1-434;1-327;1-342;1-187).
T1 sequence 1: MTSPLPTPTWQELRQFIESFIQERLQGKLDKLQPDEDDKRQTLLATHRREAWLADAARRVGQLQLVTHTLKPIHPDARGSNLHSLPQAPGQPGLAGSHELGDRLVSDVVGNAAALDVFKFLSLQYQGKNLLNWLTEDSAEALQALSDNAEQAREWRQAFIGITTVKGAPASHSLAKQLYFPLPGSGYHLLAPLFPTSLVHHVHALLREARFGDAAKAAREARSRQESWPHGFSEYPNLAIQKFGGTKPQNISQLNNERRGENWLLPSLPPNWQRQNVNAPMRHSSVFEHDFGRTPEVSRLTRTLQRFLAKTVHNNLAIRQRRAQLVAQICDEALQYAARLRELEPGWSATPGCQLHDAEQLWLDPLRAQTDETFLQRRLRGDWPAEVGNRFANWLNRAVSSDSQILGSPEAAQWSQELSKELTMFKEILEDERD
T1 sequence 2: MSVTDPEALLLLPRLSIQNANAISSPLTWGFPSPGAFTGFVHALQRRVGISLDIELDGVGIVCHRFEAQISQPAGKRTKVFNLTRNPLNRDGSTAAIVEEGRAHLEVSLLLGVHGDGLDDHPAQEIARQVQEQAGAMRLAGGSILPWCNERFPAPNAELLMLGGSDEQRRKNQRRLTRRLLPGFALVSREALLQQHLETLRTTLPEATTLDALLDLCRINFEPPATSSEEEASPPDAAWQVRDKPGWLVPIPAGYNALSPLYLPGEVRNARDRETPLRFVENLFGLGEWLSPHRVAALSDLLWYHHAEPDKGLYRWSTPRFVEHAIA
T1 sequence 3: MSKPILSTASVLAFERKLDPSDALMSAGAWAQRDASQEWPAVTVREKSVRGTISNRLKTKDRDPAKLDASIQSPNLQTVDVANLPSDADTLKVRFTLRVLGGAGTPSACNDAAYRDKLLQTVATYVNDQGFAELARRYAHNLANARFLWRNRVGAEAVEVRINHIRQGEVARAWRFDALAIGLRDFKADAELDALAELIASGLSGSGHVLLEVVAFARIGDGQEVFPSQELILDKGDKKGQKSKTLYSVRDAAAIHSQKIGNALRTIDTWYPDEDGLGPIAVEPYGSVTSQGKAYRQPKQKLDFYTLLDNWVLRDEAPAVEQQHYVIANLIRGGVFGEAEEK
T1 sequence 4: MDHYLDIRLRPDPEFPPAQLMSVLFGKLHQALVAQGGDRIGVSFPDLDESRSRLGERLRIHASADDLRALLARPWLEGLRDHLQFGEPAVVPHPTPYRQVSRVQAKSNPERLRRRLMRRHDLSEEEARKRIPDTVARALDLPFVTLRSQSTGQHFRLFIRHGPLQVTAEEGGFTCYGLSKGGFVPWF
The series is described as follows: EMSA.

The target in series [3] is Csy complex (Cas8f, Cas5f, Cas7f, Cas6f, crRNA);Cas2/3 (Pseudomonas aeruginosa;Pseudomonas …, UniProt Q02ML9;Q02MM0;Q02MM1;Q02MM2;Q02ML8 1-434;1-327;1-342;1-187;1-1076, |). As to the kind of experiment: EMSA. Background: In EMSA bound probe runs differently from free probe, usually more slowly.
The target of a further series is T2, Cas2/3 (UniProt Q02ML8 1-1076).
T2 sequence: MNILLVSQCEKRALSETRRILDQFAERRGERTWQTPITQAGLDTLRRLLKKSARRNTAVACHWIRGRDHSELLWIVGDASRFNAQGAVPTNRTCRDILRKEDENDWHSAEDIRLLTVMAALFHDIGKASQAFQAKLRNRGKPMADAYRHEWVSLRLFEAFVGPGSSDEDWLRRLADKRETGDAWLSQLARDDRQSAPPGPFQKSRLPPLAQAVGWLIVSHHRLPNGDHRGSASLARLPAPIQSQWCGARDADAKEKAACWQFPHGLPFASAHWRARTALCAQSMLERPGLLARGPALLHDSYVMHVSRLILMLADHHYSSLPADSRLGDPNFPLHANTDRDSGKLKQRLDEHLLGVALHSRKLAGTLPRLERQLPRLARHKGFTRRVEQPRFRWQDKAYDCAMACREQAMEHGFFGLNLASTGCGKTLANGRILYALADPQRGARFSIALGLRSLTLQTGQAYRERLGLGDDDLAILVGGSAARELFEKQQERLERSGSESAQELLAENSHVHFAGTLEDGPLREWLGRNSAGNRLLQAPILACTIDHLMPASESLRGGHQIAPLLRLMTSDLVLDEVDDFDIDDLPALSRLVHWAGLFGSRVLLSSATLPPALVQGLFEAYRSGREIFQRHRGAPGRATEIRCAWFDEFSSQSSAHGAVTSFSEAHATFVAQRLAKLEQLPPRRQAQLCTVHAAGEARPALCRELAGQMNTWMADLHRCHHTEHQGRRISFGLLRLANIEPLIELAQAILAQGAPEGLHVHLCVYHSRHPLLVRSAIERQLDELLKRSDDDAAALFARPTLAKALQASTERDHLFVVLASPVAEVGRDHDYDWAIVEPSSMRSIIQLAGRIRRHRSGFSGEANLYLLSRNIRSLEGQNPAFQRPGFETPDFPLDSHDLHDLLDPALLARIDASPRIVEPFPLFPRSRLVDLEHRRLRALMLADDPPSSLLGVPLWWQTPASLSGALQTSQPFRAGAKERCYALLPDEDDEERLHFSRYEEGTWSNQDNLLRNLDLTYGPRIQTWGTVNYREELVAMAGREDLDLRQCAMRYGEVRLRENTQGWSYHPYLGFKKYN
The series is described as follows: EMSA.

For orientation: Kd means a measure of binding affinity in units of concentration. Higher therefore signals lower affinity. For the molecule AcrIF23 (natural protein), in the series with Cas2/3 (P. aeruginosa), the dissociation constant (Kd) came out at 3360 nM.

As to AcrIF1 (natural protein), the Kd in series [1] came to 420 nM.

B1: Cas2/3 (enzyme)
chain: MNILLVSQCEKRALSETRRILDQFAERRGERTWQTPITQAGLDTLRRLLKKSARRNTAVACHWIRGRDHSELLWIVGDASRFNAQGAVPTNRTCRDILRKEDENDWHSAEDIRLLTVMAALFHDIGKASQAFQAKLRNRGKPMADAYRHEWVSLRLFEAFVGPGSSDEDWLRRLADKRETGDAWLSQLARDDRQSAPPGPFQKSRLPPLAQAVGWLIVSHHRLPNGDHRGSASLARLPAPIQSQWCGARDADAKEKAACWQFPHGLPFASAHWRARTALCAQSMLERPGLLARGPALLHDSYVMHVSRLILMLADHHYSSLPADSRLGDPNFPLHANTDRDSGKLKQRLDEHLLGVALHSRKLAGTLPRLERQLPRLARHKGFTRRVEQPRFRWQDKAYDCAMACREQAMEHGFFGLNLASTGCGKTLANGRILYALADPQRGARFSIALGLRSLTLQTGQAYRERLGLGDDDLAILVGGSAARELFEKQQERLERSGSESAQELLAENSHVHFAGTLEDGPLREWLGRNSAGNRLLQAPILACTIDHLMPASESLRGGHQIAPLLRLMTSDLVLDEVDDFDIDDLPALSRLVHWAGLFGSRVLLSSATLPPALVQGLFEAYRSGREIFQRHRGAPGRATEIRCAWFDEFSSQSSAHGAVTSFSEAHATFVAQRLAKLEQLPPRRQAQLCTVHAAGEARPALCRELAGQMNTWMADLHRCHHTEHQGRRISFGLLRLANIEPLIELAQAILAQGAPEGLHVHLCVYHSRHPLLVRSAIERQLDELLKRSDDDAAALFARPTLAKALQASTERDHLFVVLASPVAEVGRDHDYDWAIVEPSSMRSIIQLAGRIRRHRSGFSGEANLYLLSRNIRSLEGQNPAFQRPGFETPDFPLDSHDLHDLLDPALLARIDASPRIVEPFPLFPRSRLVDLEHRRLRALMLADDPPSSLLGVPLWWQTPASLSGALQTSQPFRAGAKERCYALLPDEDDEERLHFSRYEEGTWSNQDNLLRNLDLTYGPRIQTWGTVNYREELVAMAGREDLDLRQCAMRYGEVRLRENTQGWSYHPYLGFKKYN
As for B1, the equilibrium dissociation constant (Kd) with AcrIF23 (P. aeruginosa) amounted to 1200 nM; with AcrIF3 (P. aeruginosa), 31 nM.

B2: 54 bp target dsDNA (dsDNA)
DNA 1: GGAAGCCATCCAGGTAGACGCGGACATCAAGCCCGCCGTGAAGGTGCAGCTGCT
DNA 2: AGCAGCTGCACCTTCACGGCGGGCTTGATGTCCGCGTCTACCTGGATGGCTTCC
With B2, the binding result in series [2] and in series [3] was “binds” throughout.

B3: 54 nt ssDNA (ssDNA)
DNA: GGAAGCCATCCAGGTAGACGCGGACATCAAGCCCGCCGTGAAGGTGCAGCTGCT
On to B3, for which the binding result with Cas2/3 is on record as “binds”.

The record behind these values is PMC9270243.
